Data taken from US20180015152.

Columns and labels:
[1] = target: T1, sirtuin 1 (human Sirt1, endogenous in human aortic endothelial cells), Q96EB6
T1 chain: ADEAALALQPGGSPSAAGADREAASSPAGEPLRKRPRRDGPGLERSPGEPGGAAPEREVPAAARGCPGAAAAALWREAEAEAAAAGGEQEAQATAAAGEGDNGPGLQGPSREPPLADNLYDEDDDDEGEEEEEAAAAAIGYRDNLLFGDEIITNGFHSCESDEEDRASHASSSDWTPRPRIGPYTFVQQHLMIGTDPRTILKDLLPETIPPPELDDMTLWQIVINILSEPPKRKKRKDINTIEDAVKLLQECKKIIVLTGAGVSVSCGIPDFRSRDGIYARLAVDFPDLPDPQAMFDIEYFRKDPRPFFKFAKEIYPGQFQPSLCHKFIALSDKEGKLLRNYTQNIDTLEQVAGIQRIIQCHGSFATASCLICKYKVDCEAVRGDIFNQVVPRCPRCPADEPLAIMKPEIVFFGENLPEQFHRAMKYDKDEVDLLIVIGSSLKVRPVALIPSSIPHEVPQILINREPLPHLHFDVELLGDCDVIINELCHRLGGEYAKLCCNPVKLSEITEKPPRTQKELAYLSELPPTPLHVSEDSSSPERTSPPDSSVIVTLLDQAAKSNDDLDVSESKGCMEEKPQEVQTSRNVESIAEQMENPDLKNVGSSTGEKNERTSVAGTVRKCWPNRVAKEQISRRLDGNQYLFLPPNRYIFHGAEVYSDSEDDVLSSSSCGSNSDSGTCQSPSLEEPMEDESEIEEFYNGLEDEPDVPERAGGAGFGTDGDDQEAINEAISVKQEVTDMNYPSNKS

[2] = target: T2, cell permeable human non-Casp1 cleavable Sirt1 polypeptide (NC-Sirt1)
T2 chain: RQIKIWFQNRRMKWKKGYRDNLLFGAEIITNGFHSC

B1: caspase-1 (human, endogenous in human aortic endothelial cells) (protein)
chain: NPAMPTSSGSEGNVKLCSLEEAQRIWKQKSAEIYPIMDKSSRTRLALIICNEEFDSIPRRTGAEVDITGMTMLLQNLGYSVDVKKNLTASDMTTELEAFAHRPEHKTSDSTFLVFMSHGIREGICGKKHSEQVPDILQLNAIFNMLNTKNCPSLKDKPKVIIIQACRGDSPGVVWFKDSVGVSGNLSLPTTEEFEDDAIKKAHIEKDFIAFCSSTPDNVSWRHPTMGSVFIGRLIEHMQEYACSCDVEEIFRKVRFSFEQPDGRAQMPTTERVTLTRCFYLFPGH
cleaved-Sirt1 expression by Western blot in HAECs treated with oxLDL [1]: oxLDL induced the expression of cleaved-Sirt1 by 2.4-folds in HAECs | cleaved-Sirt1 expression by Western blot with anti-Sirt1 antibody in oxLDL-treated HAECs [2]: NC-Sirt1 dose-dependently decreases the cleavage of Sirt1 induced by oxLDL
